Measured values from the Human Domainome abundance scans (Beltran et al. 2025).
± gives the uncertainty stated by the source.

B1: POU domain, class 4, transcription factor 2, residues 256 to 327; numbered along this chain, Q12837 (parent)
chain: RDLEAFAERFKQRRIKLGVTQADVGSALANLKIPGVGSLSQSTICRFESLTLSHNNMIALKPILQAWLEEAE

Variants of: B1
Experiment: abundance fitness (aPCA) (normalised: wild type 0, dead -1); higher = more abundant; growth selection in yeast, the domain comes from the species named
Details: Homo sapiens
With RDLEAFAERFKQRRIKLGVTQADVGSALANLKIPGVGSLSQSTICRFESLTLSHNNMIALKPILQAWLIEAE [E69I] the abundance fitness was -0.248 ± 0.17.
For RDLEAFAERFKQRRIKLGVTQADVGSALANLKIPGVGSLSQSTICRFESLTLSHNNMIALKPILQAWLKEAE [E69K], the abundance fitness was -0.458 ± 0.24.
RDLEAFAERFKQRRIKLGVTQADVGSALANLKIPGVGSLSQSTICRFESLTLSHNNMIALKPILQAWLHEAE [E69H] gave an abundance fitness of -0.481 ± 0.17.
With RDLEAFAERFKQRRIKLGVTQADVGSALANLKIPGVGSLSQSTICRFESLTLSHNNMIALKPILQAWLAEAE [E69A] the abundance fitness was -0.119 ± 0.083.
RDLEAFAERFKQRRIKLGVTQADVGSALANLKIPGVGSLSQSTICRFESLTLSHNNMIALKPILQAWLTEAE [E69T] gave an abundance fitness of -0.133 ± 0.095.
RDLEAFAERFKQRRIKLGVTQADVGSALANLKIPGVGSLSQSTICRFESLTLSHNNMIALKPILQTWLEEAE [A66T] showed an abundance fitness of -0.096 ± 0.096.
RDLEAFAERFKQRRIKLGVTQADVGSALANLKIPGVGSLSQSTICRFESLTLSHNNMIALKPILQYWLEEAE [A66Y] showed an abundance fitness of -0.298 ± 0.12.
For RDLEAFAERFKQRRIKLGVTQADVGSALANLKIPGVGSLSQSTICRFESLTLSHNNMIALKPILQIWLEEAE [A66I], the abundance fitness was -0.187 ± 0.2.
Work on RDLEAFAERFKQRRIKLGVTQADVGSALANLKIPGVGSLSQSTICRFESLTLSHNNMIALKPILQGWLEEAE [A66G] yielded an abundance fitness of -0.08 ± 0.055.
For RDLEAFAERFKQRRIKLGVTQADVGSALANLKIPGVGSLSQSTICRFESLTLSHNNMIALKPILQEWLEEAE [A66E], the abundance fitness was -0.007 ± 0.067.
Variant RDLEAFAERFKQRRIKLGVTQADVGSALANLKIPGVGSLSQSTICRFESLTLSHNNMIALKPILQHWLEEAE [A66H] has an abundance fitness of -0.153 ± 0.097.
RDLEAFAERFKQRRIKLGVTQADVGSALANLKIPGVGSLSQSTICRFESLTLSHNNMIALKPILQPWLEEAE [A66P] showed an abundance fitness of -0.524 ± 0.068.
Work on RDLEAFAERFKQRRIKLGVTQADVGSALANLKIPGVGSLSQSTICRFESLTLSHNNMIALKPILQDWLEEAE [A66D] yielded an abundance fitness of 0.098 ± 0.12.
RDLEAFAERFKQRRIKLGVTQADVGSALANLKIPGVGSLSQSTICRFESLTLSHNNMIALKPILQKWLEEAE [A66K] gave an abundance fitness of 0.004 ± 0.086.
Work on RDLEAFAERFKQRRIKLGVTQADVGSALANLKIPGVGSLSQSTICRFESLTLSHNNMIALKPILQVWLEEAE [A66V] yielded an abundance fitness of -0.153 ± 0.065.
RDLEAFAERFKQRRIKLGVTQADVGSALANLKIPGVGSLSQSTICRFESLTLSHNNMIALKPILQRWLEEAE [A66R] gave an abundance fitness of -0.008 ± 0.067.
RDLEAFAERFKQRRIKLGVTQADVGSALANLKIPGVGSLSQSTICRFESLTLSHNNMIALKPILQMWLEEAE [A66M] gave an abundance fitness of -0.246 ± 0.098.
RDLEAFAERFKQRRIKLGVTQADVGSALANLKIPGVGSLSQSTICRFESLTLSHNNMIALKPILQWWLEEAE [A66W] showed an abundance fitness of -0.138 ± 0.088.
RDLEAFAERFKQRRIKLGVTQADVGSALANLKIPGVGSLSQSTICRFESLTLSHNNMIALKPILQCWLEEAE [A66C] showed an abundance fitness of -0.378 ± 0.12.
With RDLEAFAERFKQRRIKLGVTQADVGSALANLKIPGVGSLSQSTICRFESLTLSHNNMIALKPILQAWLEYAE [E70Y] the abundance fitness was -0.028 ± 0.48.
Work on RDLEAFAERFKQRRIKLGVTQADVGSALANLKIPGVGSLSQSTICRFESLTLSHNNMIALKPILQAWLEMAE [E70M] yielded an abundance fitness of -0.332 ± 0.1.
RDLEAFAERFKQRRIKLGVTQADVGSALANLKIPGVGSLSQSTICRFESLTLSHNNMIALKPILQAWLEIAE [E70I] showed an abundance fitness of -0.156 ± 0.24.
With RDLEAFAERFKQRRIKLGVTQADVGSALANLKIPGVGSLSQSTICRFESLTLSHNNMIALKPILQAWLEWAE [E70W] the abundance fitness was -0.45 ± 0.11.
Variant RDLEAFAERFKQRRIKLGVTQADVGSALANLKIPGVGSLSQSTICRFESLTLSHNNMIALKPILQAWLEPAE [E70P] has an abundance fitness of -0.826 ± 0.16.
RDLEAFAERFKQRRIKLGVTQADVGSALANLKIPGVGSLSQSTICRFESLTLSHNNMIALKPILQAWLEDAE [E70D] showed an abundance fitness of -0.212 ± 0.15.
RDLEAFAERFKQRRIKLGVTQADVGSALANLKIPGVGSLSQSTICRFESLTLSHNNMIALKPILQAWLESAE [E70S] gave an abundance fitness of -0.11 ± 0.063.
With RDLEAFAERFKQRRIKLGVTQADVGSALANLKIPGVGSLSQSTICRFESLTLSHNNMIALKPILQAWLEHAE [E70H] the abundance fitness was -0.666 ± 0.17.
With RDLEAFAERFKQRRIKLGVTQADVGSALANLKIPGVGSLSQSTICRFESLTLSHNNMIALKPILQAWLEFAE [E70F] the abundance fitness was -0.543 ± 0.46.
With RDLEAFAERFKQRRIKLGVTQADVGSALANLKIPGVGSLSQSTICRFESLTLSHNNMIALKPILQAWLECAE [E70C] the abundance fitness was -0.102 ± 0.11.
In the case of RDLEAFAERFKQRRIKLGVTQADVGSALANLKIPGVGSLSQSTICRFESLTLSHNNMIALKPILQAWLETAE [E70T], the abundance fitness is reported as -0.231 ± 0.12.
RDLEAFAERFKQRRIKLGVTQADVGSALANLKIPGVGSLSQSTICRFESLTLSHNNMIALKPILQAWLEGAE [E70G] gave an abundance fitness of -0.313 ± 0.08.
RDLEAFAERFKQRRIKLGVTQADVGSALANLKIPGVGSLSQSTICRFESLTLSHNNMIALKPILQAWLELAE [E70L] showed an abundance fitness of -0.454 ± 0.083.
With RDLEAFAERFKQRRIKLGVTQADVGSALANLKIPGVGSLSQSTICRFESLTLSHNNMIALKPILQAWLEKAE [E70K] the abundance fitness was 0.076 ± 0.14.
With RDLEAFAERFKQRRIKLGVTQADVGSALANLKIPGVGSLSQSTICRFESLTLSHNNMIALKPILQAWLEAAE [E70A] the abundance fitness was -0.058 ± 0.11.
RDLEAFAERFKQRRIKLGVTQADVGSALANLKIPGVGSLSQSTICRFESLTLSHNNMIALKPILQAWLEVAE [E70V] gave an abundance fitness of -0.186 ± 0.082.
RDLEAFAERFKQRRIKLGVTQADVGSALANLKIPGVGSLSQSTICRFESLTLSHNNMIALKPILQAWLERAE [E70R] showed an abundance fitness of -0.075 ± 0.053.
Work on RDLEAFAERFKQRRIKLGVTQADVGSALANLKIPGVGSLSQSTICRFESLTLSHNNMIALKPILQARLEEAE [W67R] yielded an abundance fitness of -0.755 ± 0.36.
RDLEAFAERFKQRRIKLGVTQADVGSALANLKIPGVGSLSQSTICRFESLTLSHNNMIALKPILQAQLEEAE [W67Q] showed an abundance fitness of 0.108 ± 0.3.
